Experimental data published in a protein production outcome set (Wang et al. 2014).

Experiment: label from the status in PepcDB records

Row | Sequence | protein production
1 | LQQFLDALASSPEKIEFETTMAVIEDNYDFTPAAFTNGNTQNDANENNGSCKIFAFGLLNALDKEATLACFGRFYREDVLLHPENNDHQNIRNFMVTGWEGIQFETSALTAK | not failed
2 | MTRSERKPLLMLMVNMFVVMMGIGLVIPILPYYIEAFGASSVELGLLIAIFSFMQFLLAPFWGRLSDKVGRKPLIAVGMFGFAVAEFIFAFATQFWMLFVSRILAGAFGSAVMPAAMAYVSDRTSEEKRGHGMGLLGASMALGIVVGPGIGGWLAEFSLATPFLFAGFAASFAAIFSLLWLPESLPLEKRKTEVEPVNQFVQMWQAVRSPIGFLLFLVFGLSFGLANFQTIFGIFALHRFHYNPSEVGFIMVLTGIVGAIAQGSLVGRLTERYGEEKVVLGSLSLSGIGFLIMMLAFNYWTVIATTCLFFLGNSILRPAVQSFLSKMAGDQQGMIMGLNNSILSLGNVVGALLAGLLFEWNMFLPYTVGAFVMFASLGATFRWLSKRASQGKHPEKSSP | failed
3 | MSIKKLWVIPKDGYLLLLDYDSDEEEEQAHSEVKRPAFGKHENMPPHVEADEDIRDEQDSMLDKSGENVSFSEEWQRFARSVETPMENWNLLSGEQQVRNASELDLMEVQNPVTHDDGNANPEEVVGDTRKKINNKLCEQKFDMDIQKFNEEQEKSVNNYQKEQQALKLSECSQSPTMEAIEDMHEKSMEGLMNMETNNYDMLFDVDGEETL | failed
4 | MGHHHHHHSHMTENDLASLFNNSALFKALGFNIIEINDDAIVMEINDDNPCHQGGFGVLTSLGINGAVISAALESAIGLCGFNALGREPAGVVELSVKILRVIRKKPCRVEARVDNKNNNVAFISATLISARGGICATGTGIVLKSKTTEATQ | not failed
5 | MATVPSNPAFAPTLSTRGRLNGILFVALFAVAVTQLAAMPAIANLGISPLIVGIVAGALYGNALRDGVPASWAAGINFSARGLLRIAVAFFGLRVSLQEIAEVGWSGLIVSVLVVTSTLLIGLWCGMKVFKLDRDTALLTAAGSAICGAAAVLAFESALRSAPHKSAMAVGSVVLFGTLSMFLYPLAINAGWLHLDTMGAGLLLGGTVHEVAQVVGAASNVSPEATHVATIVKMTRVMLLVPVLLVVGLWISRSRKAGQAQGNGRIAMPWFAFGFLALVLVNSMQVLPGSVTQAVNSLDTFALTMAMTALGMETRFSQIRQAGPRALATGAILNLWLVGGGLAITLGVQKLLG | failed
6 | GVSVSPDETMLAFGEDVLSRRVYNIYFKDIESGAMITDVLENTEGRIVWGNDNRHVFYIAKDLQTLLGNRVYRHELGTPQSRDVLVYEEQDDAYYISLGKSLDESQIVLFHESTTTSEVSVLDANDPLSLFKPVLAREEGHEYSVSKLGDSYYVLTNWQATNFRLMKVAIKDAADKSKWQEVVAHNPNARLEDELVLKDYLIIQTRENGLTRIKVMPFNGQKPFELSFDEPAYVLGLDVNA | failed
7 | MSEPVFPTPEAAEDAFYAAFEARSLDDMMAVWARDDHVACIHPLAAPLNGRAAVAAGWRSMFGAAGRFRLQVKAVHEIRQADHVIRIVDEFLTIGDETAPRPAILATNVYRREADGWRMVLHHASPLQVGAKAGADTPPVVFH | not failed
8 | SEVRWCATSDPEQHKCGNMSEAFREAGIQPSLLCVRGTSADHCVQLIAAQEADAITLDGGAIYEAGKEHGLKPVVGEVYDQEVGTSYYAVAVVRRSSHVTIDTLKGVKSCHTGINRTVGWNVPVGYLVESGRLSVMGCDVLKAVSDYFGGSCVPGAGETSYSESLCRLCRGDSSGEGVCDKSPLERYYDYSGAFRCLAEGAGDVAFVKHSTVLENTDGKTLPSWGQALLSQDFELLCRDGSRADVTEWRQCHLARVPAHAVVVRADTDGGLIFRLLNEGQRLFSHEGSSFQMFSSEAYGQKDLLFKDSTSELVPIATQTYEAWLGHEYLHAMKGLLCDPNRLPPYLRWCVLSTPEIQKCGDMAVAFRRQRLKPEIQCVSAKSPQHCMERIQAEQVDAVTLSGEDIYTAGKKYGLVPAAGEHYAPEDSSNSYYVVAVVRRDSSHAFTLDELRGKRSCHAGFGSPAGWDVPVGALIQRGFIRPKDCDVLTAVSEFFNASCVPVNNPKNYPSSLCALCVGDEQGRNKCVGNSQERYYGYRGAFRCLVENAGDVAFVRHTTVFDNTNGHNSEPWAAELRSEDYELLCPNGARAEVSQFAACNLAQIPPHAVMVRPDTNIFTVYGLLDKAQDLFGDDHNKNGFKMFDSSNYHGQDLLFKDATVRAVPVGEKTTYRGWLGLDYVAALEGMSSQQC | not failed
9 | MGKKELKRGLVVDREAQMIGVYLFEDGKTYRGIPRGKVLKKTKIYAGDYVWGEVVDPNTFAIEEVEERKNLLIRPKVANVDRVIIVETLKMPEFNNYLLDNMLVVYEYFKVEPVIVFNKIDLLNEEEKKELERWISIYRDAGYDVLKVSAKTGEGIDELVDYLEGFICILAGPSGVGKSSILSRLTGEELRTQEVSEKTERGRHTTTGVRLIPFGKGSFVGDTPGFSKVEATMFVKPREVRNYFREFLRYQCKYPDCTHTNEPGCAVKEAVKNGEISCERYKSYLKIIKVYLEEIKELCRED | not failed
10 | SAASQAGSNYPRCWNCGGPWGPGREDRFFCPQCRALQAPDPTRDYFSLMDCNRSFRVDTAKLQHRYQQLQRLVHPDFFSQRSQTEKDFSEKHSTLVNDAYKTLLAPLSRGLYLLKLHGIEIPERTDYEMDRQFLIEIMEINEKLAEAESEAAMKEIESIVKAKQKEFTDNVSSAFEQDDFEEAKEILTKMRYFSNIEEKIKLKKIPL | not failed
11 | MQRFLSIALALCVGLTLSLDASAKRFGGGKSSGSAPIHQTRQATPTTPAAAPTVPGRAPAAASGASRWLGPLAGLAAGGLLASMFMGDGFEGFQIMDFLIVALIAFLVFRFIAARRRQQQPQMAMPGHAPMQREAHAQPAQPSIFGGSAAPAATAAPVINAPAWFNEQSFLAAARNHFQSLQQHWDANEMDKISEFVTPQMLEFLKRERAELGDGFQSTYIDNLEVQLDGVDDRADRTDATLTFRGVSKNSRFDQGEVFSESWHMVRAQGENQPWLVAGIRQNS | failed
12 | MVTSSQVMLMPAHDSAKPTGFGIMVTSLDLLRDHQKVIHTLWFIDDVVARELGGFDGFCRRERVLLLFVDSTNTTLSFTRNDMTCVPRQGGADSDHWLFKRHLALLLPLSFAQVYEGFISFYEEEDKHISWDIKSCSSSSHQ | failed
13 | MEGFGMPKLIISGRGGSGKSTLVTLIAHTLKEQKKRVLVVDSDESNIGLSGILGIEPAEKTLMDYLGGKPRVMKKLRSMIRDGETEPELFREKFDLESLSQEFVCWVGSLGLMQIGKIDHAMEGCACPMGAVTRDFLNHVRLEEDQWVLVDTEAGVEHFGRGIVEGADAVVMVVDPSSDAVLLAEKAAKLTHEADKRFGVILNKIDEETEPILTELLTSEGNEIKGVLPYSPAITKMNLKGESLGAYAVKNEVDEIIRELMKCLEHHHHHH | failed
14 | LNTNQLFAYLNRGDIAEFKFSPLFTTLFFPNVATFSTQNIMLDTLDIEEVTMSAFCSPMVGSQVQRDKGYETSTIKPGYMKPKHEIDPTKTIMRMAGEDPAQLNDPTYRRMRLITGNMRRQINAIKARVEWLAVNAVTTGKNIIEGEGIERYEIDWKIPEKNIIEQADGKKWSEQDKETHYPIYDIELYADQAGCPANVMIMGAEVWRTLRSFKKFRELYDLSRGSESAAELACKNLGEVVSFKGYLGDLALIVYSGKYTDSDGTEKYFLEPDLLVLGNTNNKGLVAYGAIMDQEAVRTGATQNMFYPKNWIEDGDPAIEYVQTHSAPQPVPADIRKFVTVKIA | failed
15 | MTELDQFWPACLARLEAELSSQQFNTWIKPLTAEAGDEGIALFAPNRFIMQFIKDRFLPRIEELAVELVGELPVELRLGAPTARPAAPVAGNSQPKAKEPAKAAASAPAAPSPAKQAAVKAIGGSHESTRLNPSFTFDTLVTGKGNQLARAAAMQIAENPGDQAYNPLFVYGGVGLGKTHLIQAIGNHVFQKNPQAKIRYIHAERYVADIMRAYQHKAFDEFKRYYHSLDLLLIDDIQFFAGKNRTQEEFFYAFNALIEGGKQVIMTCDSYPKQIEGMEERLISRFSWGLTVEIQPPELEMRVAILMKKAEADSIKLEHNVAFFIAQNVRSNVRELEGALKRVVAYARFTSQNITLELVKEALKDILAAGNRQVTVDAIQKTVAEYYKIKLSDMHSKKRSRDIARPRQVAMALAKELTQLSLPNIGDAFGGRDHTTVLHACKTITEMRASDADIAHDYEALLSMLRNLEHHHHHH | failed
16 | MPEDLNWAIGGEAGDGIDSTGKIFAQALSRAGRHVFTSKDFASRIRGGYTAYKVRTSVDRVESVVDRLDILIALTERTIHENEDELHEDSVIIYDGERSTMQDVEVPGDATALEVPLKRLAEDAGGAIMLNVVALGAACEVTGFPIENLDESLEKRFGDKGEAIVENNKEAARKGQHYVQEEYGEFDYDMETTDEDYVLLNGDEAIGMGAIAAGCRFYSGYPITPATDVMEYMTGRVDQFGGKVVQAEDELSAINMALGAARAGARAMTATSGPGIDLMTETFGLVATSETPLVICDVMRSGPSTGMPTKQEQGDLNMTLYGGHGEIPRFVVAPTTVSECFWKTVEAFNLAEKYQTPVFLVSDLAMAVTEQTFSPETFDMDEVEIDRGKVVDENEIDAWLDEKGRFQAHFAAADGVSPRAFPGTTDGAHMTTGLEHDELGRRTEDTDVRIEQVDKRQRKVETAREQEDFDYREFGDSDADTLVISWGSNEGALREGLTLLEEDGYDVRFLSVPYIFPRPDLSEEIEAAEDVIVVECNATGQFADVIEHDVLERVQRINKYNGVRFKADELATEIKQTLDTPPEATQ | failed
17 | MCSSDSLQLHNVFVYGSFQDPDVINVMLDRTPEIVSATLPGFQRFRLKGRLYPCIVPSEKGEVHGKVLMGVTSDELENLDAVEGNEYERVTVGIVREDNSEKMAVKTYMWINKADPDMFGEWNFEEWKRLHKKKFIETFKKIMECKKKPQGQGNDDISHVLREDQ | not failed
18 | MLEVVYIVGAFGSPLLTPPTLAVAGFLIAVLMGLEYGVLWVLTGESLNRELILVISNIVYSIAWSITALPFTPIYYTLQPYFSQPLLIYLYLALFIGSILLGVIPAIMYIRKYLQFNKIQKEFKQLELDYKSINQEYSEINTRLNKAKEEINNVMDKINKAKELHETALRDPDLIVTALDKKPEIPEVIRPNVNYVVAGLGGTGTALLEALIDYLVSKNVIKEDGTNPFLFVAFDTNQASIARLRKKYEYTPVGKLLYTFNNFEALTTANIISHNPWLAGLNVDVIQGSGMKRAIGYASYNTVKEAMMEDILRRLSDLIAKTRTNRIFLIVFTALGGGTGSGSFIHFTKDFISRLGRITGDSEPYVRVSGM | failed
19 | MGAIPKTGTISPEQKDSQEKNLFQKIWSWEIGVIPLPLYTVLAVIIILAAYYNELPANMLGGFAIIMILGVFLGDIGQRIPILKDIGGPAILSLFVPSFLVFYNVLNSTSLDAVTNLMKTSNFLYFYIACLVVGSILGMNRIVLIQGFIRMFVPLVAGTIAAVAAGILVGFIFGYSAYDSFFFVVVPIIAGGIGEGILPLSIAYSQILGSSADVFVSQLVPAAIIGNVFAIICAALMKKLGDKRPDLNGNGRLVKSKKANEIFNQKEAEAKIDFKLMGAGVLLACTFFIFGGLLEKFIFIPGAILMIISAAAVKYANILPKKMEEGAYQLYKFISSSFTWPLMVGLGILFIPLDDVASVISIPFVIICISVVIAMIGSGYFVGKLMNMYPVESAIVTCCHSGLGGTGDVAILSASGRMGLMPFAQISTRLGGAGTVICATVLLRFFTS | failed
20 | MKNYMKLIFGLGLIALVGYWPAAKTPKRVNSLFLQNVEALAGSEHVTNLGCLGDGSVDCPINHIKVEYVVQGFSLGE | failed
21 | LETSSYLNVLVNSQWKSRWCSVRDNHLHFYQDRNRSKVAQQPLSLVGCEVVPDPSPDHLYSFRILHKGEELAKLEAKSSEEMGHWLGLLLSESG | not failed
22 | MRDFGEILAENRKKKGYSQSDLVNLLSQEGIQVTTKALSKWENNAREPALHVFLTLCQLLDIEDIYESFFGENPYNIMSGLNEEGRNKLIEFADILKASKKFSPLSAKIIPFHHPVEITWEPVSAGTGNYLEDSVKETYDVGHLAPEQTDFGVRISGDSMEPLYHTDDVAWIQKKDSLANGEIGIFYLNGNTYIKELHDEPDGVYLISLNQKYRPIQVLESDSFKIFGKVIGKCKGAEIPGFHLEHHHHHH | not failed
